Experimental data from publication PMC3130265.

Target: GST-Sam68(1-277) (UniProt Q60749 1-277)
Assay: EMSA

Chain of GST-Sam68(1-277) (Q60749 1-277): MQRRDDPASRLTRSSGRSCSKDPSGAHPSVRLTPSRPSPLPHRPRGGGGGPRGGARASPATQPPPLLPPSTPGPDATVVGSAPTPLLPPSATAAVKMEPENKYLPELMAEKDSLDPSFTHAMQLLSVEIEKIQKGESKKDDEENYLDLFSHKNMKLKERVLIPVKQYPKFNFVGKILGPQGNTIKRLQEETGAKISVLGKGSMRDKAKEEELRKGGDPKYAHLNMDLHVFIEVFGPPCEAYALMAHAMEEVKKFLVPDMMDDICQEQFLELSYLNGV

Binder: UAUUUAAUUCAUAAAUUUUGUUUUGUUUCUAGGGA (ssRNA) [Sgce WT probe (intron 7/exon 8 boundary)]
- binding result: binds
